US20030157553A1 (published 2003)
Positions count from the first letter of the chain named.

B1: wild type bovine β-arrestin (other)
chain: MGDKGTRVFKKASPNGKLTVYLGKRDFVDHIDLVEPVDGVVLVDPEYLKERRVYVTLTCAFRYGREDLDVLGLTFRKDLFVANVQSFPPAPEDKKPLTRLQERLIKKLGEHAYPFTFEIPPNLPCSVTLQPGPEDTGKACGVDYEVKAFCAENLEEKIHKRNSVRLVIRKVQYAPERPGPQPTAETTRQFLMSDKPLHLEASLDKEIYYHGEPISVNVHVTNNTNKTVKKIKISVRQYADICLFNTAQYKCPVAMEEADDTVAPSSTFCKVYTLTPFLANNREKRGLALDGKLKHEDTNLASSTLLREGANREILGIIVSYKVKVKLVVSRGGLLGDLASSDVAVELPFTLMHPKPKEEPPHREVPEHETPVDTNLIELDTNDDDIVFEDFARQRLKGMKDDKEEEEDGTGSPRLNDR
notes: Full-length wild type from construct pBARR; also called wild type β-arrestin; bovine β-arrestin 1A
B2: β-arrestin-(Arg169→Glu) (other)
chain: B1 chain with R169E
notes: Bovine β-arrestin point mutant made in pBARR

Molecular target: T1, phosphorylated β2-adrenergic receptor (agonist-activated) (UniProt P07550 1-413, limits assumed, phosphorylated (sites and kinase not stated for the experiment))
T1 construct: Phosphorylated form of the purified, reconstituted β2AR; also called P-β2AR
Test: agonist affinity shift assay, [125I]iodopindolol displacement by agonist with saturating (1 µM) purified arrestin, P-β2AR
Method: Agonist Affinity ShiftAssay—P-β₂AR or β₂AR (10-15 fmol/assay) was incubated in 0.25 ml of 10 mM Tris-HCl, pH 7.4, 100 mM NaCl (buffer A) containing 0.1 mg/ml bovine serum albumin in the presence of 65-75 fmol of [¹²⁵I] iodopindolol (NEN Life Science Products) and the indicated concentrations of arrestins and agonists for 60 min at 22° C. Samples were then cooled on ice and loaded at 4° C. onto 2 ml of Sephadex G-50 columns. Receptor-containing liposomes with bound radioligand were eluted with buffer A (between 0.6 and 1.5 ml), and radioactivity was quantitated in a liquid scintillation counter. Nonspecific binding was determined in the presence of 10 μM alprenolol. All experiments were repeated two to three times, and data are presented as means ±S.D.
It was recently reported that arrestin-receptor complex is similar to G protein-receptor complex in two respects: agonists have higher affinity for arrestin-receptor complex than for receptor alone, and only a fraction of the receptors forms such a high agonist affinity complex (HAC) even at saturating concentrations of arrestin (Gurevich et al. (1997) supra). The maximum percentage of the receptor in HAC gives a good estimate of the propensity of a given arrestin protein to bind tightly to the receptor (arrestin competency) Gurevich et al. (1997) supra)). […]

Binder | percentage of receptor in high agonist affinity complex (HAC) [%]
B1 | 31
B2 | 52
